Data reported in patent US20180148504A1 (EISAI R AND D MANAGEMENT, published 2018).

Legend:
[1] = biological target: T1, recombinant purified FRα (ECL assay calibrator) (human, UniProt P15328 25-234); test: ECL sandwich, FRα calibrator; capture 5C12.H8; binder = detection Ab
T1 construct: Calibrator of the ECL sandwich assays; also called FRα calibrator; FRα standard

[2] = biological target: T2, recombinant human folate receptor alpha (rhFRα) (human, UniProt P15328 25-234); test: BIAcore (SPR), format not described
T2 construct: CHO: Ig kappa leader, C-terminal 6xHis replacing the GPI attachment site; also called FOLR1; FOLR-1

[3] = biological target: T1, recombinant purified FRα (ECL assay …); test: ECL sandwich, FRα calibrator; capture 1D2.G8.G10; binder = detection Ab
[4] = biological target: T1, recombinant purified FRα (ECL assay …); test: ECL sandwich, FRα calibrator; capture 6A2.G7; binder = detection Ab
[5] = biological target: T1, recombinant purified FRα (ECL assay …); test: ECL sandwich on FRα, signal to background; capture 19D2.G9; binder = detection Ab
[6] = biological target: T1, recombinant purified FRα (ECL assay …); test: ECL sandwich, FRα calibrator; capture 24H8.F3; binder = detection Ab
[7] = biological target: T1, recombinant purified FRα (ECL assay …); test: ECL sandwich, FRα calibrator; capture 26A9.C4; binder = detection Ab
[8] = biological target: T1, recombinant purified FRα (ECL assay …); test: ECL sandwich on FRα, signal to background; capture 24H8.D3; binder = detection Ab
[9] = biological target: T1, recombinant purified FRα (ECL assay …); test: ECL sandwich on FRα, signal to background; capture 19D4.B7; binder = detection Ab
[10] = biological target: T1, recombinant purified FRα (ECL assay …); test: ECL sandwich on FRα, signal to background; capture 5C12.H8; binder = detection Ab
[11] = biological target: T1, recombinant purified FRα (ECL assay …); test: ECL sandwich on FRα, signal to background; capture 1D2.G8.G10; binder = detection Ab
[12] = biological target: T1, recombinant purified FRα (ECL assay …); test: ECL sandwich on FRα, signal to background; capture 30G6.G6.G4.E9; binder = detection Ab
[13] = biological target: T1, recombinant purified FRα (ECL assay …); test: ECL sandwich on FRα, signal to background; capture 26A9.C4; binder = detection Ab
[14] = biological target: T1, recombinant purified FRα (ECL assay …); test: ECL sandwich on FRα, signal to background; capture 28H12.G9; binder = detection Ab
[15] = biological target: T1, recombinant purified FRα (ECL assay …); test: ECL sandwich, FRα calibrator; capture 30G6.G6.G4.E9; binder = detection Ab
[16] = biological target: T1, recombinant purified FRα (ECL assay …); test: ECL sandwich on FRα, signal to background; capture 2F11.F8; binder = detection Ab
[17] = biological target: T1, recombinant purified FRα (ECL assay …); test: ECL sandwich on FRα, signal to background; capture 6A2.G7; binder = detection Ab
[18] = biological target: T1, recombinant purified FRα (ECL assay …); test: ECL sandwich, FRα calibrator; capture 19D2.G9; binder = detection Ab
[19] = biological target: T1, recombinant purified FRα (ECL assay …); test: ECL sandwich, FRα calibrator; capture 1C6.E12.G8; binder = detection Ab
[20] = biological target: T1, recombinant purified FRα (ECL assay …); test: ECL sandwich on FRα, signal to background; capture 1C6.E12.G8; binder = detection Ab
[21] = biological target: T1, recombinant purified FRα (ECL assay …); test: ECL sandwich, FRα calibrator; capture 28H12.G9; binder = detection Ab
[22] = biological target: T1, recombinant purified FRα (ECL assay …); test: ECL sandwich, FRα calibrator; capture 2F11.F8; binder = detection Ab
[23] = biological target: T1, recombinant purified FRα (ECL assay …); test: ECL sandwich, FRα calibrator; capture 1A8.G11.E7; binder = detection Ab
[24] = biological target: T3, human folate receptor beta (FRβ), recombinant, C-terminal 6xHis (human, UniProt P14207 17-230, limits assumed); test: direct ELISA, plates coated with 1 µg/mL FR isoform, dilution series of culture supernatant
T3 construct: Transiently expressed in 293F cells and purified; coated on ELISA plates

[25] = biological target: T4, human folate receptor gamma (FRγ), recombinant, C-terminal 6xHis (human, UniProt P41439 23-245, limits assumed); test: as above
T4 construct: Transiently expressed in 293F cells and purified; coated on ELISA plates

[26] = biological target: T1, recombinant purified FRα (ECL assay …); test: ECL sandwich, FRα calibrator; capture 24H8.D3; binder = detection Ab
[27] = biological target: T1, recombinant purified FRα (ECL assay …); test: ECL sandwich on FRα, signal to background; capture 24H8.F3; binder = detection Ab
[28] = biological target: T1, recombinant purified FRα (ECL assay …); test: ECL sandwich, FRα calibrator; capture 19D4.B7; binder = detection Ab
[29] = biological target: T1, recombinant purified FRα (ECL assay …); test: ECL sandwich on FRα, signal to background; capture 1A8.G11.E7; binder = detection Ab

T1 sequence (P15328 25-234 limits assumed): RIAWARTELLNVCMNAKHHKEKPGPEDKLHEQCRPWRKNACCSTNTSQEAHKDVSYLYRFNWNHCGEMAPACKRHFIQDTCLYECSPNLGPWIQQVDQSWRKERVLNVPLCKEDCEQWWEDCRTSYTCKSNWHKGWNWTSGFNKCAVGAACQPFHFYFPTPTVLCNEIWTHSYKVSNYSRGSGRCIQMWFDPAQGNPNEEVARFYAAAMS
T2 sequence (P15328 25-234 limits assumed): as above
T4 sequence (P41439 other isoform, or with tags, fused parts or gaps limits assumed): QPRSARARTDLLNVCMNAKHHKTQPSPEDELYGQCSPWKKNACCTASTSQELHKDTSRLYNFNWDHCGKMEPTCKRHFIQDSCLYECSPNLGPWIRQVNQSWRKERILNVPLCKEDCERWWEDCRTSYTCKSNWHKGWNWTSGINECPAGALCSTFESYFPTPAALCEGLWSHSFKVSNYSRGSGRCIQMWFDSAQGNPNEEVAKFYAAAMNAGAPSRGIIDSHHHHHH
T3 sequence (P14207 other isoform, or with tags, fused parts or gaps limits assumed): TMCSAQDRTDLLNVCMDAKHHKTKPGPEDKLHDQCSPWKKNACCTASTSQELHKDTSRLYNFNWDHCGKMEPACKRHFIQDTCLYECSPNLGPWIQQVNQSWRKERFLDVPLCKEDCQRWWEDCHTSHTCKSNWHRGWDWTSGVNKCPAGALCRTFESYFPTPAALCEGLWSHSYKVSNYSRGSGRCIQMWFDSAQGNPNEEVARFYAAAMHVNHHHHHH

B1: Monoclonal antibody 6A2.G7 (antibody, mouse IgG1, V domains shown)
VH: GADLVKPGASVKMSCKASGYTFSRYNMHWVKQTPGQGLEWIGTIYPGNGDTSYNEKFKGKATLTADKSSSIVYMQVSSLTSEASAVYYCARDYGSRYALDYWGQGTSVTVSS
VL: SSLSASLGDRVTISCRASQDISNYLNWYQQKPDGTVKLLIYYTSRLHSGVPSRFSGSGSGTDYSLTISNLEQEDIATYFCQQGNTLPYTFGGGTKLEIK
notes: Murine IgG1 kappa from hybridoma; also called ATCC PTA-123093
Specific signal at 500 pg/mL [1]: 100 | Kd [2]: 15 nM | Specific signal at 500 pg/mL [3]: 347 | Specific signal at 500 pg/mL [4]: 92 | Average of S/B [5]: 205 | Specific signal at 500 pg/mL [6]: 3890 | Specific signal at 500 pg/mL [7]: 347 | Average of S/B [8]: 109 | Average of S/B [9]: 145 | Average of S/B [10]: 1 | Average of S/B [11]: 5 | Average of S/B [12]: 31 | Average of S/B [13]: 4 | Average of S/B [14]: 7 | Specific signal at 500 pg/mL [15]: 2410 | Average of S/B [16]: 5 | Average of S/B [17]: 1 | Specific signal at 500 pg/mL [18]: 11700 | Specific signal at 500 pg/mL [19]: 217 | Average of S/B [20]: 3 | Specific signal at 500 pg/mL [21]: 432 | Specific signal at 500 pg/mL [22]: 283 | Specific signal at 500 pg/mL [23]: 6000 | binding result [24]: no binding | binding result [25]: no binding | Specific signal at 500 pg/mL [26]: 6620 | Average of S/B [27]: 63 | Specific signal at 500 pg/mL [28]: 10800 | Average of S/B [29]: 89
